From US11795460B2, “Compositions and methods for TTR gene editing and treating ATTR amyloidosis” (Intellia Therapeutics, Inc., priority 2017, dated 2023)
Strand notation (5' to 3'): a small letter for the sugar, then the base; units joined by * are phosphorothioate-linked, units joined directly phosphodiester-linked; [ ] holds rarer units or linkages, { } end groups; capitals alone tell only the bases. m = 2'-O-methyl; r = 2'-OH (RNA)

B1: G000481: TTR sgRNA modified sequence, Human, SEQ ID No. 88; guide sequence of CR003345 (nucleic acid)
guide: mU*mC*mU*rArGrArArCrUrUrUrGrArCrCrArUrCrArGrGrUrUrUrUrArGrAmGmCmUmAmGmAmAmAmUmAmGmCrArArGrUrUrArArArArUrArArGrGrCrUrArGrUrCrCrGrUrUrArUrCrAmAmCmUmUmGmAmAmAmAmAmGmUmGmGmCmAmCmCmGmAmGmUmCmGmGmUmGmCmU*mU*mU*mU
B2: G000482: TTR sgRNA modified sequence, Human, SEQ ID No. 89; guide sequence of CR003365 (nucleic acid)
guide: mU*mG*mU*rArGrArArGrGrGrArUrArUrArCrArArArGrGrUrUrUrUrArGrAmGmCmUmAmGmAmAmAmUmAmGmCrArArGrUrUrArArArArUrArArGrGrCrUrArGrUrCrCrGrUrUrArUrCrAmAmCmUmUmGmAmAmAmAmAmGmUmGmGmCmAmCmCmGmAmGmUmCmGmGmUmGmCmU*mU*mU*mU
B3: G000486: TTR sgRNA modified sequence, Human, SEQ ID No. 93; guide sequence of CR003339 (nucleic acid)
guide: mA*mC*mA*rCrArArArUrArCrCrArGrUrCrCrArGrCrArGrUrUrUrUrArGrAmGmCmUmAmGmAmAmAmUmAmGmCrArArGrUrUrArArArArUrArArGrGrCrUrArGrUrCrCrGrUrUrArUrCrAmAmCmUmUmGmAmAmAmAmAmGmUmGmGmCmAmCmCmGmAmGmUmCmGmGmUmGmCmU*mU*mU*mU

How the values were obtained:
TTR mRNA = TTR mRNA knockdown in primary human hepatocytes by quantitative PCR (Tables 34, 35); format: cell-based; details: TTR mRNA in PHH, 96 hours after treatment, vs untreated control
Description: In one experiment, PHH were cultured and treated with LNPs comprising Cas9 mRNA (SEQ ID NO:1) and a gRNA of interest (See FIG. 29, Table 34), as described in Example 4. The LNPs were prepared using the cross-flow procedure described above and purified and concentrated using PD-10 columns and Amicon centrifugal filter units, respectively. The LNPs were formulated with an N:P ratio of 6.0 and contained Lipid A, Cholesterol, DSPC, and PEG2k-DMG in a 50:38:9:2 molar ratio, respectively. The LNPs comprised a gRNA:mRNA ratio of 1:2, and the cells were treated at a dose of 300 ng (with respect to the amount of mRNA cargo delivered).
(§1) Ninety-six (96) hours following LNP treatment (with biological triplicates for each condition), mRNA was purified from PHH cells using the Dynabeads mRNA DIRECT Kit (ThermoFisher Scientific) according to the manufacturer's protocol. Reverse Transcription (RT) was performed with Maxima reverse transcriptase (ThermoFisher Scientific) and a poly-dT primer. The resulting cDNA was purified with Ampure XP Beads (Agencourt). For Quantitative PCR, 2% of the purified cDNA was amplified with Taqman Fast Advanced Mastermix and 3 Taqman probe sets, TTR (Assay ID: Hs00174914_m1), GAPDH (Assay ID: Hs02786624_g1), and PPIB (Assay ID: Hs00168719_m1). The assays were run on the QuantStudio 7 Flex Real Time PCR System according to the manufacturer's instructions (Life Technologies). Relative expression of TTR mRNA was calculated by normalizing to the endogenous controls (GAPDH and PPIB) individually, and then averaged.
In a separate experiment, TTR mRNA knockdown was evaluated following treatment with LNPs comprising G000480, G000486, and G000502. The LNPs were formulated and PHH were cultured and treated with the LNPs, each as described in the experiment above in this Example with the exception that the cells were treated at a dose of 100 ng (with respect to the amount of mRNA cargo delivered).
as §1, with “(single treatment” for “(with biological triplicates”, “the High Capacity cDNA Reverse Transcription Kit” for “Maxima reverse transcriptase”, “according to the manufacturer's instructions.” for “and a poly-dT primer. The resulting cDNA was purified with Ampure XP Beads (Agencourt).”, “the” for “the purified”

human TTR sequence = test: Liver editing in humanized TTR mice dosed with LNP formulations (Table 26); format: in vivo, mouse; details: 1, 0.3, or 0.1 mg/kg
[1] = LNP dose 300 ng mRNA cargo, gRNA:mRNA 1:2, biological triplicates
[2] = Cas9 mRNA (SEQ ID NO: 1) 1:1 by weight to guide, FIG. 27A
[3] = Cas9 mRNA (SEQ ID NO: 1) 1:2 by weight to guide, FIG. 28A

Molecule	Avg % Knockdown (TTR mRNA; [1]) [%]	Liver editing, dose response (human TTR sequence; [2])	Liver editing, dose response (human TTR sequence; [3])	Avg % Knockdown (TTR mRNA; LNP dose 100 ng mRNA cargo, separate experiment) [%]
B1	91.39	A dose response for both editing and serum TTR levels was evident	A dose response for both editing and serum TTR levels was evident	
B2	82.31	A dose response for both editing and serum TTR levels was evident		
B3		A dose response for both editing and serum TTR levels was evident	A dose response for both editing and serum TTR levels was evident	97.36
